From patent US20040093164A1, “Computer system and methods for producing morphogen analogs of human TDF-1” (priority 2002, published 2004) come the findings set out here.

The target of series [1] is alpha-2 macroglobulin. The series can be described thus: competition binding assay, immobilized alpha-2 macroglobulin.
Another series relates to ROS cells. The series can be described thus: effect of alpha-2 macroglobulin on TDF-1 stimulated alkaline phosphatase activity in a ROS cell assay. It is filed as cell-based.
For series [2], the target named is T1, alpha-2 macroglobulin (Homo sapiens, UniProt P01023).
T1 sequence (P01023 24-1474): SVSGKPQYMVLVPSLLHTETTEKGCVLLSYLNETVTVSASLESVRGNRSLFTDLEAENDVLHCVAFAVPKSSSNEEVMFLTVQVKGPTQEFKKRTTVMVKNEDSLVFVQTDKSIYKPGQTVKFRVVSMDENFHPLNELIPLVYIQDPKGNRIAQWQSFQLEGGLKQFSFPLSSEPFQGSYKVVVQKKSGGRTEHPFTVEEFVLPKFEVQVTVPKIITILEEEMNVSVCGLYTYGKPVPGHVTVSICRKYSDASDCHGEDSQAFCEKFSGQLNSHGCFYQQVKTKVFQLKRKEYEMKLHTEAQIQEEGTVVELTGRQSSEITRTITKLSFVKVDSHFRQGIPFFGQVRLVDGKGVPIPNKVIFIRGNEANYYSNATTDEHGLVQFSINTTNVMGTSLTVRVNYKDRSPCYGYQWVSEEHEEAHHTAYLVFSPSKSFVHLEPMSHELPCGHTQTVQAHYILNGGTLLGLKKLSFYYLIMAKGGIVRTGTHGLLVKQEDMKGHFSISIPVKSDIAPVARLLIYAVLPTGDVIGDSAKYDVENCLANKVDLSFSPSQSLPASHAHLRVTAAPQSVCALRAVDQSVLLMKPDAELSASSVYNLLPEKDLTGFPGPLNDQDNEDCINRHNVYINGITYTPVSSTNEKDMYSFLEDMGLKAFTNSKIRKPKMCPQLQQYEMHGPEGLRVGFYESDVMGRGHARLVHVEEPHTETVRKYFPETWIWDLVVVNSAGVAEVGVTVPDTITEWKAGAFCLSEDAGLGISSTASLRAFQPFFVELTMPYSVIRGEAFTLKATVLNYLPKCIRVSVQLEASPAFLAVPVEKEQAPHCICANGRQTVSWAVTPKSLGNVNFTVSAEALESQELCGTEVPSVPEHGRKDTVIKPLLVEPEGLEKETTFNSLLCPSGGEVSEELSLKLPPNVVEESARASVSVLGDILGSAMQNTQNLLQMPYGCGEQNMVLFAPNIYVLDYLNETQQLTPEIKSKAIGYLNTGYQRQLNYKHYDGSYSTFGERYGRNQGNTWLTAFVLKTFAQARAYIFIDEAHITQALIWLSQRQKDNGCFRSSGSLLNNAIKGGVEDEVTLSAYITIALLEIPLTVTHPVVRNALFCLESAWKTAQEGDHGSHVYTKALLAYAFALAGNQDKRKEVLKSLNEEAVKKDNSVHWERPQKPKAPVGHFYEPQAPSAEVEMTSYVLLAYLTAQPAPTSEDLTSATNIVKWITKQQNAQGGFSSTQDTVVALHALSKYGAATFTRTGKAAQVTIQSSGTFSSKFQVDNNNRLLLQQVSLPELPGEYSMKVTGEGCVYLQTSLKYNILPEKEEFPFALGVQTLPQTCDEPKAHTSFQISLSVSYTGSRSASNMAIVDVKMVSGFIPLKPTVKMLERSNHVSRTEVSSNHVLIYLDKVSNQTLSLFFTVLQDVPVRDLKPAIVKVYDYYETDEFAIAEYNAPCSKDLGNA
Briefly: competition binding assay with immobilized alpha-2 macroglobulin and labeled and unlabeled TDF-1. The following applies: immobilized alpha-2 macroglobulin. The source says:
This N-terminal portion of the protein, which is not part of the crystal structure, is positively charged and likely is highly flexible in solution.

The nature of series [3]: solubility by comparing the partition coefficient of mutein versus wild type hTDF-1 dimer. It is filed as physicochemical. The following applies: partition coefficient comparison, surmised result. The source says:
The resulting candidate morphogen analogs can be produced using conventional site-directed mutagenesis methodologies, and the effect of the site-directed modification on the solubility of the hTDF-1 dimer can be measured, for example, by comparing the partition coefficient or “salting out properties” of the modified hTDF-1 dimer versus the native hTDF-1 dimer. See, for example, Scopes (1987) in Protein Purification: Principles and Practice, 2nd Edition (Springer-Verlag); and Englard et al. (1990) Meth. Enzymol. 182: 285-300, both incorporated herein by reference.
The enhanced solubility of the resulting morphogen analog is measured by comparing the partition coefficient of the Ala 63->Ser 63 mutein versus wild type hTDF-1 dimer. […] It is contemplated that additional muteins having multiple hydrophobic to hydrophilic substitutions can be produced and characterized using the protocols described in this Example. The biological activity of the resulting morphogen analogs can be determined using one or more of the TDF-1 activity assays described Example 1.

Turning to “truncated mature TDF-1, wherein the first 22 amino acids have been cleaved from the mature form of TDF-1 in a standard trypsin digest (ligand)”, the fold less affinity than TDF-1 with alpha-2 macroglobulin [1] worked out at 10 fold.
With “Alpha-2 macroglobulin: protease scavenging protein known to bind proteins in serum and target them to the kidney for clearance”, the “interference with TDF-1's ability to stimulate alkaline phosphatase activity” value in the series with ROS cells is “not to interfere”.
As to “TDF-1: tissue morphogenic protein Transformation and Differentiation Factor-1, SEQ ID NO:1”, in the series with alpha-2 macroglobulin [2], the “interaction with alpha-2 macroglobulin” value was “interact specifically”.

B1: Ala 63->Ser 63 mutein: hTDF-1 with the alanine at position 63 mutated to a serine (protein, UniProt P18075 293-431, looked up, variant A63S)
Bone morphogenetic protein 7: STGSKQRSQNRSKTPKNQEALRMANVAENSSSDQRQACKKHELYVSFRDLGWQDWIIAPEGYSAYYCEGECAFPLNSYMNATNHAIVQTLVHFINPETVPKPCCAPTQLNAISVLYFDDSSNVILKKYRNMVVRACGCH
Regarding B1, in series [3], the “solubility versus native hTDF-1” value is listed as “higher solubility than native hTDF-1”.
